Data: article PMC4650570 (Cell Research, 2014)

B1: CSPG4-N(401-560)-Fc (Fc fusion)
chain: LAPEAWPAMELPEPCVPEPGLPPVFANFTQLLTISPLVVAEGGTAWLEWRHVQPTLDLMEAELRKSQVLFSVTRGARHGELELDIPGAQARKMFTLLDVVNRKARFIHDGSEDTSDQLVLEVSVTARVPMPSCLRRGQTYLLPIQVNPVNDPPHIIFPHG
B2: CSPG4-N(30-640)-Fc (Fc fusion)
chain: ASFFGENHLEVPVATALTDIDLQLQFSTSQPEALLLLAAGPADHLLLQLYSGRLQVRLVLGQEELRLQTPAETLLSDSIPHTVVLTVVEGWATLSVDGFLNASSAVPGAPLEVPYGLFVGGTGTLGLPYLRGTSRPLRGCLHAATLNGRSLLRPLTPDVHEGCAEEFSASDDVALGFSGPHSLAAFPAWGTQDEGTLEFTLTTQSRQAPLAFQAGGRRGDFIYVDIFEGHLRAVVEKGQGTVLLHNSVPVADGQPHEVSVHINAHRLEISVDQYPTHTSNRGVLSYLEPRGSLLLGGLDAEASRHLQEHRLGLTPEATNASLLGCMEDLSVNGQRRGLREALLTRNMAAGCRLEEEEYEDDAYGHYEAFSTLAPEAWPAMELPEPCVPEPGLPPVFANFTQLLTISPLVVAEGGTAWLEWRHVQPTLDLMEAELRKSQVLFSVTRGARHGELELDIPGAQARKMFTLLDVVNRKARFIHDGSEDTSDQLVLEVSVTARVPMPSCLRRGQTYLLPIQVNPVNDPPHIIFPHGSLMVILEHTQKPLGPEVFQAYDPDSACEGLTFQVLGTSSGLPVERRDQPGEPATEFSCRELEAGSLVYVHRGGPAQDLTF

Columns and labels:
[1] = molecular target: Clostridium difficile toxin B, His-tagged (TcdB-His) (Clostridium difficile, UniProt P18177 1-2366); test: SPR
GST-TcdB-C(1500-2366) = GST-TcdB-C(1500-2366) (Clostridium difficile, UniProt P18177 1500-2366); test: pull-down
Sequence of GST-TcdB-C(1500-2366) (P18177 1500-2366): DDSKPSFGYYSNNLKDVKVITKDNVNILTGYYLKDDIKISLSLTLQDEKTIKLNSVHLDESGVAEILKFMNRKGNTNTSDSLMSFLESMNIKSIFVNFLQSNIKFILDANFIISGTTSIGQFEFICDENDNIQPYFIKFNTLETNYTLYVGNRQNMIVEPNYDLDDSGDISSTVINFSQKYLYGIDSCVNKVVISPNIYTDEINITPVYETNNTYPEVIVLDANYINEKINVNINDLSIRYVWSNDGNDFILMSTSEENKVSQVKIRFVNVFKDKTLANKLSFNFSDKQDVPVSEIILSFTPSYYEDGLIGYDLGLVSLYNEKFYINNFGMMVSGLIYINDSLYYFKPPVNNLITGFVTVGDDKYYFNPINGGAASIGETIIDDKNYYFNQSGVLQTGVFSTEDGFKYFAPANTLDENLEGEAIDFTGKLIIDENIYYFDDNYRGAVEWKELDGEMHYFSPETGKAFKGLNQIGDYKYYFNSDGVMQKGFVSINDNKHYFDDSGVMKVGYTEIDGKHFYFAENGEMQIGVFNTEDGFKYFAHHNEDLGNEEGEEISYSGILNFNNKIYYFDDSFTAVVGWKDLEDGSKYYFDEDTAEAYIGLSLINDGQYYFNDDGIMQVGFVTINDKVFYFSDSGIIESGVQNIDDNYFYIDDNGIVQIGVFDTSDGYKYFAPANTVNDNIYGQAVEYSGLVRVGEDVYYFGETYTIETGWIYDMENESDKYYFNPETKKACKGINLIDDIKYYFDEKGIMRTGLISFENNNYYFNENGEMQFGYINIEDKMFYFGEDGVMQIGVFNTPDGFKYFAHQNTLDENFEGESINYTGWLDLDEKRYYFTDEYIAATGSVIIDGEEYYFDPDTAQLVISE

Sequence of Clostridium difficile toxin B, His-tagged (TcdB-His) (P18177 whole entry): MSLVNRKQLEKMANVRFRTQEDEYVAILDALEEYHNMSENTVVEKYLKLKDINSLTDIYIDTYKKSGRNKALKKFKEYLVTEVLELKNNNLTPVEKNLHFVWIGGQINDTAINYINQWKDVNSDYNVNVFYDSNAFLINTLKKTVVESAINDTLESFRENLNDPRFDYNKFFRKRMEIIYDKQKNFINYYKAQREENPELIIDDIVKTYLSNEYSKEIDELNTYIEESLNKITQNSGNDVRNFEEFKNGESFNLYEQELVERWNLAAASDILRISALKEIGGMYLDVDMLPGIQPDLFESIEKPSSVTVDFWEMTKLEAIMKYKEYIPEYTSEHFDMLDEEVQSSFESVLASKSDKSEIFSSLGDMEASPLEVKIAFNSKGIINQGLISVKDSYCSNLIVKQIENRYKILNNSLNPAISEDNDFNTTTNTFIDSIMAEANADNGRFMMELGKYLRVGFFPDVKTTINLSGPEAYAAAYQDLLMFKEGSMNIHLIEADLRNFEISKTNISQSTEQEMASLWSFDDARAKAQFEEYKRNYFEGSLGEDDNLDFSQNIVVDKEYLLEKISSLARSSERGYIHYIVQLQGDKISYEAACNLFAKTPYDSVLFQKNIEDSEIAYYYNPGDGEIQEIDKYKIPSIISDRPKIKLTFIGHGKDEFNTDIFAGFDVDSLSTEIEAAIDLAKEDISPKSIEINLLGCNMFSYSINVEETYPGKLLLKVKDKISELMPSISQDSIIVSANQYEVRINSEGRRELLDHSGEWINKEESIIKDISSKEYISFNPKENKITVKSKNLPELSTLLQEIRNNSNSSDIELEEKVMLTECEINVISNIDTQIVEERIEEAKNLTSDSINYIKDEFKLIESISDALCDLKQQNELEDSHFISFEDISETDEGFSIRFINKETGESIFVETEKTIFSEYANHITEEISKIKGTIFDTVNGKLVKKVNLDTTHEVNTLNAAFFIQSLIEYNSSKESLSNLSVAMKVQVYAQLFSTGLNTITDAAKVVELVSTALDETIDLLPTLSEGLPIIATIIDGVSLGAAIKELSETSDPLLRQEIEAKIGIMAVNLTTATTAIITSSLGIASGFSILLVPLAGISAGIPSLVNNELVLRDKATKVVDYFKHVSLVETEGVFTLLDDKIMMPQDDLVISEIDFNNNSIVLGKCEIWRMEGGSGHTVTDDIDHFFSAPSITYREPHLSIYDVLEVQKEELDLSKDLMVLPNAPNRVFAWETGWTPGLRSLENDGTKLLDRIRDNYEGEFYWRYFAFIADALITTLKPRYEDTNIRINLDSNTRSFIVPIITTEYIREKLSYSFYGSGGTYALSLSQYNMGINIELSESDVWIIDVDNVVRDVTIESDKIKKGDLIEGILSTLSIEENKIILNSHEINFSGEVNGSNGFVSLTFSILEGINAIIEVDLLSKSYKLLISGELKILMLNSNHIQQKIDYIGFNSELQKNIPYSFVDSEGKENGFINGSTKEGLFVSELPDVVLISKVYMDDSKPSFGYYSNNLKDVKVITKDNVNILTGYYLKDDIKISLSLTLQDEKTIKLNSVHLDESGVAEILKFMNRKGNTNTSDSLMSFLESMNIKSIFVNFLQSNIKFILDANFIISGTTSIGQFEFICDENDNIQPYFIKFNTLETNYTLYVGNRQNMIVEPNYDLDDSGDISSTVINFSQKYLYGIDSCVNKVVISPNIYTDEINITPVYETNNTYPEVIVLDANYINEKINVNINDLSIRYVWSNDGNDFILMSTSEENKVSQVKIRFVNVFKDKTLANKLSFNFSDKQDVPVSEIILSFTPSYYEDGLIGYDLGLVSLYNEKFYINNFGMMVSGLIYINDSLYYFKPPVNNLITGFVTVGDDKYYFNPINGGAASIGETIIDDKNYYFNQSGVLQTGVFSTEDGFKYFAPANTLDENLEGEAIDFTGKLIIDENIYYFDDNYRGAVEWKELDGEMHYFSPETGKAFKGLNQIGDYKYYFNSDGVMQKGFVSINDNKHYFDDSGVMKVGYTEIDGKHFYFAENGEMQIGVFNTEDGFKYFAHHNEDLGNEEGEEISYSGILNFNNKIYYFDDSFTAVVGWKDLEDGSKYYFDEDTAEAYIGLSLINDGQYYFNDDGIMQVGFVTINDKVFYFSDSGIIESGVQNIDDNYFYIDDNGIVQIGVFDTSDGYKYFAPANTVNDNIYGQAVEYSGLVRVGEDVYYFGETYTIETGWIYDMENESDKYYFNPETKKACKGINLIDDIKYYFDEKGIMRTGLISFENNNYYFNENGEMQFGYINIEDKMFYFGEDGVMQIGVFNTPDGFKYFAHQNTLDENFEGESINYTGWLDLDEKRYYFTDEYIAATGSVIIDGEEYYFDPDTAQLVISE

Binder | Kd [1] [nM] | binding result (GST-TcdB-C(1500-2366))
B1 | 28.9 ± 0.7 | –
B2 | – | binds
